Measured values as given in paper PMC2562697.

Molecular target: MutSα subunit MSH2-His6;MutSα subunit MSH6 (human;human, UniProt P43246;P52701 1-934;1-1360, |)
Assay: EMSA

B1: G:T mismatch 35 bp (dsDNA)
DNA 1: GTGGATCCCCCGGGCTGCGGGAATTCGATATCAAG
DNA 2: CTTGATATCGAATTCCTGCAGCCCGGGGGATCCAC
**Q.** Does B1 bind?
**A.** binds
